Here are results for five molecules from US20210238289A1 (Biogen, published 2021).

In experiment [1] the target is T1, CD16 (FcγRIIIa V158) (UniProt P08637 17-208).
T1 construct: V158 allotype as printed
Put plainly: solution competition SPR (Biacore); text value differing from the table (100.2). Here is the method: Binding to Fcγ receptors was analyzed using solution affinity surface plasmon resonance (ref Day E S, Cachero T G, Qian F, Sun Y, Wen D, Pelletier M, Hsu Y M, Whitty A. Selectivity of BAFF/BLyS and APRIL for binding to the TNF family receptors BAFFR/BR3 and BCMA. Biochemistry. 2005 Feb. 15; 44(6):1919-31.) The method utilizes conditions of so-called “mass-transport-limited” binding, in which the initial rate of ligand binding (protein binding to the senor chip) is proportional to the concentration of ligand in solution (ref BIApplications Handbook (1994) Chapter 6: Concentration measurement, pp 6-1-6-10, Pharmacia Biosensor AB). Under these conditions, binding of the soluble analyte (protein flowing over chip surface) to the immobilized protein on the chip is fast compared to the diffusion of the analyte into the dextran matrix on the chip surface. Therefore, the diffusion properties of the analyte and the concentration of analyte in solution flowing over the chip surface determine the rate at which analyte binds to the chip. In this experiment, the concentration of free Fc receptor in solution is determined by the initial rate of binding to a CM5 Biacore chip containing an immobilized IgG1 MAb. Into these Fc receptor solutions were titrated the stability engineered constructs (see Table 10.1 below). […] Initial binding rates were obtained from raw sensorgram data (FIG. 14). […]

The target of experiment [2] is T2, CD64 (FcγRI) (UniProt P12314 16-288, limits assumed). Put plainly: solution competition SPR (Biacore); construct titrated into receptor, free receptor read on immobilized IgG1 MAb. Here is the method:
(§1) Binding to Fcγ receptors was analyzed using solution affinity surface plasmon resonance (ref Day E S, Cachero T G, Qian F, Sun Y, Wen D, Pelletier M, Hsu Y M, Whitty A. Selectivity of BAFF/BLyS and APRIL for binding to the TNF family receptors BAFFR/BR3 and BCMA. Biochemistry. 2005 Feb. 15; 44(6):1919-31.) The method utilizes conditions of so-called “mass-transport-limited” binding, in which the initial rate of ligand binding (protein binding to the senor chip) is proportional to the concentration of ligand in solution (ref BIApplications Handbook (1994) Chapter 6: Concentration measurement, pp 6-1-6-10, Pharmacia Biosensor AB). Under these conditions, binding of the soluble analyte (protein flowing over chip surface) to the immobilized protein on the chip is fast compared to the diffusion of the analyte into the dextran matrix on the chip surface. Therefore, the diffusion properties of the analyte and the concentration of analyte in solution flowing over the chip surface determine the rate at which analyte binds to the chip. In this experiment, the concentration of free Fc receptor in solution is determined by the initial rate of binding to a CM5 Biacore chip containing an immobilized IgG1 MAb. Into these Fc receptor solutions were titrated the stability engineered constructs (see Table 10.1 below). […] Initial binding rates were obtained from raw sensorgram data (FIG. 14). […] The results are shown in Table 10.1 and reported as the average of two titrations.

Experiment [3] concerns the target T1, CD16 (FcγRIIIa V158). Described as above. As to the method: as §1
A further experiment addresses T3, human C1q (human, UniProt P02745 23-245; P02746 28-253; P02747 29-245).
T3 construct: Bought protein; also called complement factor C1q; Sigma human C1q (C0660)
Put plainly: C1q ELISA. Here is the method: The C1q binding assay was be performed by coating 96 well Maxisorb ELISA plates (Nalge-Nunc Rochester, N.Y., USA) with 50 μl recombinant soluble human CD40 ligand at 10 ug/ml overnight at 4° C. in PBS. The wells were aspirated and washed three times with wash buffer (PBS, 0.05% Tween 20) and blocked for 1 hour with 200 µl/well of block/diluent buffer (0.1 M Na2HP04, pH 7.0, 1 M NaCl, 0.05% Tween 20, 1% gelatin). The antibodies were diluted in block/diluent buffer with 3-fold dilutions and incubated for 2 hours at room temperature.
After aspirating and washing as above, 50 pll/well of sheep anti C1q (Serotec AHP033), diluted 3, 560-fold in block/diluent buffer, were added. After incubation for 1 h at room temperature, the wells were aspirated and washed as above. 50 pll/well of donkey anti-sheep IgG HRP conjugate (Jackson ImmunoResearch 713-035-147) diluted to 1:10,000 in block/diluent were then added, and the wells incubated for 1 h at room temperature.
After aspirating and washing as above, 100 all TMB substrate (420 plM TMB, 0.004% H2O2 in 0.1 M sodium acetate/citric acid buffer, pH 4.9) were added and incubated for 2 min before the reaction was stopped with 100 ul 2 N sulfuric acid. The absorbance was read at 450 nm with a Softmax PRO instrument, and Softmax software was used to determine the relative binding affinity (C value) with a 4-parameter fit.

The target in experiment [4] is T2, CD64 (FcγRI). Put plainly: solution competition SPR (Biacore). As to the method: as §1
The target in experiment [5] is T1, CD16 (FcγRIIIa V158). Nature of the experiment: solution competition SPR (Biacore). As to the method: as §1
A further experiment addresses T4, human alpha-4 integrin (human, UniProt P13612 34-970, limits assumed).
T4 construct: also called the human receptor
Put plainly: in vitro binding affinity comparison; method not described.

The target of experiment [6] is T5, cynomolgus monkey alpha-4 integrin (cynomolgus monkey, UniProt A0A2K5U6S2 34-970).
T5 construct: also called cynomolgus alpha-4 integrin
Described as above.

Experiment [7] deals with T6, VLA receptors (alpha-4 integrin) of cynomolgus monkeys in vivo (cynomolgus monkey, UniProt A0A2K5U6S2 34-1032).
T6 construct: whole, on cells; Receptor occupancy measured in dosed animals; also called free VLA receptors
Put plainly: model-estimated (direct Emax PKPD model) EC50 for the formation of drug-bound VLA in cynomolgus monkeys. An excerpt: HP1/2 human PKs were projected through allometric scaling on monkey PK parameters (k10, k12, k21 and V1). See Singh, A. P et al. The AAPS Journal, 17(2), 389-399. […] The inherent monkey parameters were directly applied to human including Km, V max and the PD parameters (Eₘ, EC₅₀, E₀ and V). […] See Muralidharan, K. K. et al. Journal of Clinical Pharmacology, 57(8), 1017-1030. The data were integrated using an empirical scaling approach combining the EC₅₀ parameter values obtained in monkeys (m) and humans (h), after adjusting for potency (Kd) differences across species: […]

The target of experiment [8] is T1, CD16 (FcγRIIIa V158). Nature of the experiment: solution competition SPR (Biacore). The source holds these as a separate data set.

B1: IgG1 control antibody (hu5c8 IgG1, glycosylated) (antibody)
heavy: not shown
light: DIVLTQSPATLSVSPGERATISCRASQRVSSSTYSYMHWYQQKPGQPPKLLIKYASNLESGVPARFSGSGSGTDFTLTISSVEPEDFATYYCQHSWEIPPTFGGGTKLEIKRTVAAPSVFIFPPSDEQLKSGTASVVCLLNNFYPREAKVQWKVDNALQSGNSQESVTEQDSKDSTYSLSSTLTLSKADYEKHKVYACEVTHQGLSSPVTKSFNRGEC
notes: also called IgG1 wild type
With B1, the values for the IC50 with CD16 (FcγRIIIa V158) [1], with CD64 (FcγRI) [2] and in the experiment with CD16 (FcγRIIIa V158) [3] were 105 µM, 9.64 µM and 100 µM, respectively.

B2: EAG2287 (hu5c8 S228P/T299K, IgG4 CH2/IgG1 CH3 chimera, aglycosylated) (antibody)
heavy: QVQLVQSGAEVVKPGASVKLSCKASGYIFTSYYMYWVKQAPGQGLEWIGEINPSNGDTNFNEKFKSKATLTVDKSASTAYMELSSLRSEDTAVYYCTRSDGRNDMDSWGQGTLVTVSSASTKGPSVFPLAPCSRSTSESTAALGCLVKDYFPEPVTVSWNSGALTSGVHTFPAVLQSSGLYSLSSVVTVPSSSLGTKTYTCNVDHKPSNTKVDKRVESKYGPPCPPCPAPEFLGGPSVFLFPPKPKDTLMISRTPEVTCVVVDVSQEDPEVQFNWYVDGVEVHNAKTKPREEQFNSKYRVVSVLTVLHQDWLNGKEYKCKVSNKGLPSSIEKTISKAKGQPREPQVYTLPPSRDELTKNQVSLTCLVKGFYPSDIAVEWESNGQPENNYKTTPPVLDSDGSFFLYSKLTVDKSRWQQGNVFSCSVMHEALHNHYTQKSLSLSPG
light: DIVLTQSPATLSVSPGERATISCRASQRVSSSTYSYMHWYQQKPGQPPKLLIKYASNLESGVPARFSGSGSGTDFTLTISSVEPEDFATYYCQHSWEIPPTFGGGTKLEIKRTVAAPSVFIFPPSDEQLKSGTASVVCLLNNFYPREAKVQWKVDNALQSGNSQESVTEQDSKDSTYSLSSTLTLSKADYEKHKVYACEVTHQGLSSPVTKSFNRGEC
notes: also called pEAG2287; copies: 2 + 2
B2: the binding result with human C1q and with CD16 (FcγRIIIa V158) [5] was “no binding” each time. This molecule displayed an IC50 with CD64 (FcγRI) [4] of 4040 µM.

B3: HP1/2 H1/L3 huIgG4P agly (N297Q, EU Numbering)/IgG1 chimera (antibody, V domains shown)
VH: EVQLVQSGAEVKKPGATVKISCKASGFNIKDTYMHWVQQAPGKGLEWMGRIDPASGDTKYDPKFQVRVTITADTSTDTAYMELSSLRSEDTAVYYCADGMWVSTGYALDFWGQGTLVTVSS
VL: SIVMTQSPDSLAVSLGERATINCKASQSVTNDVAWYQQKPGQPPKLLIYYASNRYTGVPDRFSGSGYGTDFTFTISSLQAEDVATYFCQQDYSSPYTFGQGTKVEIKR
notes: also called BIIB107; HP1/2 G4P agly/G1
On to B3, for which, in the experiment with human alpha-4 integrin, the “fold higher affinity than natalizumab Fab fragment” value is over 19 fold and the “fold higher affinity than natalizumab intact” value was about 5 fold. For the same molecule, the “fold weaker affinity than to the human receptor” value in experiment [6] was about 5 fold. Moreover, in [7], the EC50 was 4.73 ng/mL.

B4: HP1/2 Fab fragment (Fab, V domains shown)
VH: EVQLVQSGAEVKKPGATVKISCKASGFNIKDTYMHWVQQAPGKGLEWMGRIDPASGDTKYDPKFQVRVTITADTSTDTAYMELSSLRSEDTAVYYCADGMWVSTGYALDFWGQGTLVTVSS
VL: SIVMTQSPDSLAVSLGERATINCKASQSVTNDVAWYQQKPGQPPKLLIYYASNRYTGVPDRFSGSGYGTDFTFTISSLQAEDVATYFCQQDYSSPYTFGQGTKVEIKR
With B4, in the experiment with human alpha-4 integrin, the “fold higher affinity than natalizumab Fab fragment” value was about 6 fold. In [6], the “fold weaker affinity than to the human receptor” value is about 6 fold.

B5: EAG2476 (YC406-Fc; agly IgG4-Fc T299K, T307P, L309K, D399S) (other)
Fc: ESKYGPPCPPCPAPEFLGGPSVFLFPPKPKDTLMISRTPEVTCVVVDVSQEDPEVQFNWYVDGVEVHNAKTKPREEQFNSKYRVVSVLPVKHQDWLNGKEYKCKVSNKGLPSSIEKTISKAKGQPREPQVYTLPPSQEEMTKNQVSLTCLVKGFYPSDIAVEWESNGQPENNYKTTPPVLSSDGSFFLYSRLTVDKSRWQEGNVFSCSVMHEALHNHYTQKSLSLSLG
modifications: Aglycosylated through T299K. The Fc is a homodimer; one chain is given.
The molecule B5 had an IC50 with CD16 (FcγRIIIa V158) [8] of 1320 µM.
